Read-outs that look alike come from different tables or passages of the source.
How the values were obtained:
[1] = LogD determination: partition between 1-octanol and phosphate buffer pH 7.4
Description: In the following, the lipophilicity of the labeled conjugates was investigated to get a first idea of the potential excretion pathway of the agents during an in vivo application. The logD values were determined by partition experiments between n-octanol and aqueous solution at pH 7.4.
The mixtures were intensively shaken for 5 min on a vibrating plate. After subsequent centrifugation at 13,000 rpm for 5 min, 125 µL were taken from each phase and measured in a γ-counter. The logD values were calculated from three or four independent experiments, each performed in triplicate.

[2] = set-up: method as in PMID 32618007, PMID 32948032; conditions: MIUs; mean ± SD; ref [20],[21]; cited from earlier work
[3] = set-up: method as in PMID 32618007, PMID 32948032; conditions: ref [20],[21], cited from earlier work
[4] = Photophysical properties (absorbance and emission measurements); assay type: physicochemical; conditions: PBS, 1 × 10^−5 mol × L^−1
Description: Following the synthesis of the target compounds, their photophysical properties were determined. Here, a possible negative influence of the conjugation of the different MIUs to the corresponding peptidic structures on the absorbance coefficients, or the absorption or emission wavelengths should be ruled out. In Table 2, the results of these evaluations are reported for the MIU-peptide-bioconjugates 7 a-c, 8 a-c and 9 a-c as well as for the MIUs 7-9. As expected, no significant loss or shift of fluorescence properties of the final compounds compared to their imaging units before conjugation was observed. This is in line with the earlier observation for PESIN homodimer-MIU-conjugates where an influence of dye or MIU bioconjugation on fluorescence quantum yields and other photophysical properties could be ruled out.
For HPLC chromatography, a Dionex UltiMate 3000 system was used together with Chromeleon Software (Version 6.80). For semipreparative analyses, a Chromolith (RP-18e, 100–10 mm, Merck, Germany) column was used. For radioanalytical use, a Dionex UltiMate 3000 system equipped with a Raytest GABI Star radioactivity detector was used together with a Chromolith Performance (RP-18e, 100–4.6 mm, Merck, Germany) column. All operations were performed with a flow rate of 4 mL/min using H2O + 0.1% TFA and MeCN + 0.1% TFA as solvents. HR-ESI (high-resolution Electrospray Ionization) and MALDI (Matrix-Assisted Laser Desorption/Ionization) spectra were obtained with Finnigan MAT95Q and Bruker Daltronics Microflex spectrometers, respectively. γ-counting was performed using a 2480 Wizard gamma counter system from Perkin Elmer (Rodgau, Germany). For absorbance and emission measurements, a Tecan Infinite M200 Microplate reader together with a Nunc Micro-Well 96 solid plate from ThermoFisher (Dreieich, Germany) was used. Confocal fluorescence microscopy was performed on a Leica TCS SP8 confocal microscope with lasers at λ = 405, 488, 552 and 638 nm. Overlays of microscopies were generated directly with the operating software or afterwards using FIJI software (V1.50e).

In the case of CCCC[C@H](NC(=O)CCOCCOCCOCCOCCNC(=O)CCCN1C(=O)CC(SC[C@H](NC(=O)[C@H](CCCCNC(=O)c2ccc(C3=C(/C=C/C4=[N+](CCCCS(=O)(=O)O)c5ccc6ccccc6c5C4(C)C)CCC/C3=C\C=C3\N(CCCCS(=O)(=O)[O-])c4ccc5ccccc5c4C3(C)C)cc2)NC(=O)CC[C@H](C(=O)O)N2CCN(CC(=O)O)CCN(CC(=O)O)CC2)C(N)=O)C1=O)C(=O)N[C@H]1CC(=O)NCCCC[C@@H](C(N)=O)NC(=O)[C@H](Cc2c[nH]c3ccccc23)NC(=O)[C@H](CCCNC(=N)N)NC(=O)[C@@H](Cc2ccccc2)NC(=O)[C@H](Cc2c[nH]cn2)NC1=O (stereo partly drawn) [9 b, Nle-c(DHfRWK)-cyanine-NODA-GA], the logD [1] is reported as -1.42 ± 0.13.
For CSCC[C@H](NC(=O)[C@H](CC(C)C)NC(=O)[C@H](Cc1c[nH]cn1)NC(=O)CNC(=O)[C@@H](NC(=O)[C@H](C)NC(=O)[C@H](Cc1c[nH]c2ccccc12)NC(=O)[C@H](CCC(N)=O)NC(=O)CCOCCOCCOCCOCCNC(=O)CCCN1C(=O)CC(SC[C@H](NC(=O)[C@H](CCCCNS(=O)(=O)c2cccc3c(N(C)C)cccc23)NC(=O)CC[C@H](C(=O)O)N2CCN(CC(=O)O)CCN(CC(=O)O)CC2)C(N)=O)C1=O)C(C)C)C(N)=O (stereo partly drawn) [8 a, BBN7-14-dansyl-NODA-GA], the logD [1] was -1.44 ± 0.01.
Compound CSCC[C@H](NC(=O)[C@H](CC(C)C)NC(=O)[C@H](Cc1c[nH]cn1)NC(=O)CNC(=O)[C@@H](NC(=O)[C@H](C)NC(=O)[C@H](Cc1c[nH]c2ccccc12)NC(=O)[C@H](CCC(N)=O)NC(=O)CCOCCOCCOCCOCCNC(=O)CCCN1C(=O)CC(SC[C@H](NC(=O)CNC(=O)CC[C@H](C(=O)O)N2CCN(CC(=O)O)CCN(CC(=O)O)CC2)C(N)=O)C1=O)C(C)C)C(N)=O (stereo partly drawn) [[^68Ga]Ga-10 a, metal not drawn] has a logD [1] of -3.78 ± 0.04.
In the case of CC1(C)C(/C=C/C2=C(c3ccc(C(=O)NCCCC[C@H](NC(=O)CC[C@H](C(=O)O)N4CCN(CC(=O)O)CCN(CC(=O)O)CC4)C(=O)N[C@@H](CS)C(N)=O)cc3)C(=C/C=C3/N(CCCCS(=O)(=O)[O-])c4ccc5ccccc5c4C3(C)C)/CCC2)=[N+](CCCCS(=O)(=O)O)c2ccc3ccccc3c21 [Compound 9, thio-cyanine-NODA-GA], the logD [2] is listed as −1.29 ± 0.11, the “Stokes Shift” value ([3]; MIU, λex = 650 nm) is listed as 10 nm and the “λmax(em)” value ([3]; MIU, λex = 650 nm) is listed as 800 nm. For the same compound, the “λmax(abs)” value ([3]; MIUs) was 720/790.
In the case of CCCC[C@H](NC(=O)CCOCCOCCOCCOCCNC(=O)CCCN1C(=O)CC(SC[C@H](NC(=O)CNC(=O)CC[C@H](C(=O)O)N2CCN(CC(=O)O)CCN(CC(=O)O)CC2)C(N)=O)C1=O)C(=O)N[C@H]1CC(=O)NCCCC[C@@H](C(N)=O)NC(=O)[C@H](Cc2c[nH]c3ccccc23)NC(=O)[C@H](CCCNC(=N)N)NC(=O)[C@@H](Cc2ccccc2)NC(=O)[C@H](Cc2c[nH]cn2)NC1=O (stereo partly drawn) [[^68Ga]Ga-10 b, metal not drawn], the logD [1] is reported as -3.36 ± 0.02.
Work on N=C(N)NCCC[C@@H]1NC(=O)[C@H](CCCCNC(=O)CCOCCOCCOCCOCCNC(=O)CCCN2C(=O)CC(SC[C@H](NC(=O)CNC(=O)CC[C@H](C(=O)O)N3CCN(CC(=O)O)CCN(CC(=O)O)CC3)C(N)=O)C2=O)NC(=O)[C@@H](Cc2ccccc2)NC(=O)[C@H](CC(=O)O)NC(=O)CNC1=O (stereo partly drawn) [10 c, c(RGDfK)-NODA-GA] yielded a logD [1] of -4.06 ± 0.1.
For CN(C)c1cccc2c(S(=O)(=O)NCCCC[C@H](NC(=O)CC[C@H](C(=O)O)N3CCN(CC(=O)O)CCN(CC(=O)O)CC3)C(=O)N[C@@H](CS)C(N)=O)cccc12 [Compound 8, thio-dansyl-NODA-GA], the logD [2] is listed as −1.39 ± 0.04 and the “λmax(em)” value ([3]; MIUs, λex = 400 nm) is listed as 550 nm.
In the case of Cc1cc(/C=C/c2ccc(N(C)C)cc2)cc(C)[n+]1CCCC[C@H](NC(=O)CC[C@H](C(=O)O)N1CCN(CC(=O)O)CCN(CC(=O)O)CC1)C(=O)N[C@@H](CS)C(N)=O [Compound 7], the logD [2] is listed as −2.04 ± 0.11, the “Stokes Shift” value ([3]; MIU, λex = 400 nm) is listed as 160 nm and the “log ε” value ([3]; MIUs) is listed as 4.16 M^−1cm^−1. The “λmax(abs)” value ([3]; MIUs) was 440 nm and the “λmax(em)” value ([3]; MIUs, λex = 400 nm) was 600 nm.
In the case of NC(=O)[C@H](CS)NC(=O)CNC(=O)CC[C@H](C(=O)O)N1CCN(CC(=O)O)CCN(CC(=O)O)CC1 [Compound 10, thio-NODA-GA], the logD [2] is given as −3.35 ± 0.15.
CN(C)c1cccc2c(S(=O)(=O)NCCCC[C@H](NC(=O)CC[C@H](C(=O)O)N3CCN(CC(=O)O)CCN(CC(=O)O)CC3)C(=O)N[C@@H](CSC3CC(=O)N(CCCC(=O)NCCOCCOCCOCCOCCC(=O)NCCCC[C@@H]4NC(=O)[C@@H](Cc5ccccc5)NC(=O)[C@H](CC(=O)O)NC(=O)CNC(=O)[C@H](CCCNC(=N)N)NC4=O)C3=O)C(N)=O)cccc12 (stereo partly drawn) [8 c, c(RGDfK)-dansyl-NODA-GA] showed a logD [1] of -2.17 ± 0.14.
CCCC[C@H](NC(=O)CCOCCOCCOCCOCCNC(=O)CCCN1C(=O)CC(SC[C@H](NC(=O)[C@H](CCCC[n+]2c(C)cc(/C=C/c3ccc(N(C)C)cc3)cc2C)NC(=O)CC[C@H](C(=O)O)N2CCN(CC(=O)O)CCN(CC(=O)O)CC2)C(N)=O)C1=O)C(=O)N[C@H]1CC(=O)NCCCC[C@@H](C(N)=O)NC(=O)[C@H](Cc2c[nH]c3ccccc23)NC(=O)[C@H](CCCNC(=N)N)NC(=O)[C@@H](Cc2ccccc2)NC(=O)[C@H](Cc2c[nH]cn2)NC1=O (stereo partly drawn) [7 b, Nle-c(DHfRWK)-pyrylium-NODA-GA] gave a logD [1] of -2.03 ± 0.06.
In the case of CC1(C)C(/C=C/C2=C(c3ccc(C(=O)NCCCC[C@H](NC(=O)CC[C@H](C(=O)O)N4CCN(CC(=O)O)CCN(CC(=O)O)CC4)C(=O)N[C@@H](CSC4CC(=O)N(CCCC(=O)NCCOCCOCCOCCOCCC(=O)NCCCC[C@@H]5NC(=O)[C@@H](Cc6ccccc6)NC(=O)[C@H](CC(=O)O)NC(=O)CNC(=O)[C@H](CCCNC(=N)N)NC5=O)C4=O)C(N)=O)cc3)C(=C/C=C3/N(CCCCS(=O)(=O)[O-])c4ccc5ccccc5c4C3(C)C)/CCC2)=[N+](CCCCS(=O)(=O)O)c2ccc3ccccc3c21 (stereo partly drawn) [9 c, c(RGDfK)-cyanine-NODA-GA], the logD [1] is reported as -1.97 ± 0.18.
With Cc1cc(/C=C/c2ccc(N(C)C)cc2)cc(C)[n+]1CCCC[C@H](NC(=O)CC[C@H](C(=O)O)N1CCN(CC(=O)O)CCN(CC(=O)O)CC1)C(=O)N[C@@H](CSC1CC(=O)N(CCCC(=O)NCCOCCOCCOCCOCCC(=O)NCCCC[C@@H]2NC(=O)[C@@H](Cc3ccccc3)NC(=O)[C@H](CC(=O)O)NC(=O)CNC(=O)[C@H](CCCNC(=N)N)NC2=O)C1=O)C(N)=O (stereo partly drawn) [7 c, c(RGDfK)-pyrylium-NODA-GA] the logD [1] was -2.51 ± 0.09.
For CCCC[C@H](NC(=O)CCOCCOCCOCCOCCNC(=O)CCCN1C(=O)CC(SC[C@H](NC(=O)[C@H](CCCCNS(=O)(=O)c2cccc3c(N(C)C)cccc23)NC(=O)CC[C@H](C(=O)O)N2CCN(CC(=O)O)CCN(CC(=O)O)CC2)C(N)=O)C1=O)C(=O)N[C@H]1CC(=O)NCCCC[C@@H](C(N)=O)NC(=O)[C@H](Cc2c[nH]c3ccccc23)NC(=O)[C@H](CCCNC(=N)N)NC(=O)[C@@H](Cc2ccccc2)NC(=O)[C@H](Cc2c[nH]cn2)NC1=O (stereo partly drawn) [8 b, Nle-c(DHfRWK)-dansyl-NODA-GA], the logD [1] was -1.66 ± 0.03.
CSCC[C@H](NC(=O)[C@H](CC(C)C)NC(=O)[C@H](Cc1c[nH]cn1)NC(=O)CNC(=O)[C@@H](NC(=O)[C@H](C)NC(=O)[C@H](Cc1c[nH]c2ccccc12)NC(=O)[C@H](CCC(N)=O)NC(=O)CCOCCOCCOCCOCCNC(=O)CCCN1C(=O)CC(SC[C@H](NC(=O)[C@H](CCCC[n+]2c(C)cc(/C=C/c3ccc(N(C)C)cc3)cc2C)NC(=O)CC[C@H](C(=O)O)N2CCN(CC(=O)O)CCN(CC(=O)O)CC2)C(N)=O)C1=O)C(C)C)C(N)=O (stereo partly drawn) [7 a, BBN7-14-pyrylium-NODA-GA] gave a logD [1] of -2.38 ± 0.02.
With CSCC[C@H](NC(=O)[C@H](CC(C)C)NC(=O)[C@H](Cc1c[nH]cn1)NC(=O)CNC(=O)[C@@H](NC(=O)[C@H](C)NC(=O)[C@H](Cc1c[nH]c2ccccc12)NC(=O)[C@H](CCC(N)=O)NC(=O)CCOCCOCCOCCOCCNC(=O)CCCN1C(=O)CC(SC[C@H](NC(=O)[C@H](CCCCNC(=O)c2ccc(C3=C(/C=C/C4=[N+](CCCCS(=O)(=O)[O-])c5ccc6ccccc6c5C4(C)C)CCC/C3=C\C=C3\N(CCCCS(=O)(=O)O)c4ccc5ccccc5c4C3(C)C)cc2)NC(=O)CC[C@H](C(=O)O)N2CCN(CC(=O)O)CCN(CC(=O)O)CC2)C(N)=O)C1=O)C(C)C)C(N)=O (stereo partly drawn) [9 a, BBN7-14-cyanine-NODA-GA] the “λmax(abs)” value [4] was 724/800, the “Stokes Shift” value ([4]; λex = 650 nm) was 9 nm and the “λmax(em)” value ([4]; λex = 650 nm) was 809 nm. It also gave a logD [1] of -1.45 ± 0.06.
